From patent US20100239605A1

Assays:
[1] = biological target: HRV14-NimII-XXX17AA library (Human rhinovirus 14; influenza type A virus) (UniProt P03303); experiment: cell-based or functional assay
[2] = biological target: HRV14-NimII-XXX23AA library (Human rhinovirus 14; influenza type A virus) (UniProt P03303); experiment: cell-based or functional assay

anti-M2e Mab 14C2 (Abcam, Inc; Cat# ab5416) (antibody)
Fifty-percent neutralization (PRNT) (reciprocal dilution of 1 mg/ml stock) [1]: 2e+06 | Fifty-percent neutralization (PRNT) (reciprocal dilution of 1 mg/ml stock) [2]: 2e+06
